Numbering of substitutions follows the chain as printed.
T1: HLA-DR (DRA*0101/DRB1*0401) on the surface of PRIESS cells (human, UniProt P01903 26-254; P01911 30-266)
T1 MHC II alpha: not shown
T1 MHC II beta: not shown

B1: MS-GPC-8-27-41 Fab (Fab, V domains shown)
VH: QVQLKESGPALVKPTQTLTLTCTFSGFSLSTSGVGVGWIRQPPGKALEWLALIDWDDDKYYSTSLKTRLTISKDTSKNQVVLTMTNMDPVDTATYYCARSPRYRGAFDYWGQGTLVTVSS
VL: DIVLTQPPSVSGAPGQRVTISCSGSESNIGNNYVQWYQQLPGTAPKLLIYDNNQRPSGVPDRFSGSKSGTSASLAITGLQSEDEADYYCQSYDMNVHVFGGGTKLTVLG
B2: MS-GPC-8-17 Fab (Fab, V domains shown)
VH: B1 VH
VL: B1 VL with E26S, N31S, Q35S, M94F, N95S, H97Y
B3: MS-GPC-8-6-2 Fab (Fab, V domains shown)
VH: B1 VH
VL: B1 VL with N31S, Q35H, M94Y, N95D, V96H, H97Y

Columns and labels:
[1] = target: HLA-DR on the surface of LG-2 cells (human B-lymphoblastoid cell line) (human); experiment: cell-based or functional assay
[2] = target: T1, HLA-DR (DRA*0101/DRB1*0401) on the …; experiment: cell-based or functional assay

Binder | EC50 of cell killing (nM) for bivalent agent; LG2 cells; Fab cross-linked with anti-FLAG M2 [1] | EC50 of cell killing (nM) for bivalent agent; PRIESS cells; Fab cross-linked with anti-FLAG M2 [2]
B1 | 7.2 nM | 7.7 nM
B2 | – | 16 nM
B3 | – | 8 nM

Reference: patent publication US20040019187A1 (published 2004)
